{"source": "patent US20170281716", "proteins": {"B1": {"name": "Recombinant poly-histidine-tagged caspase-3 (protein)", "chain": "SGISLDNSYKMDYPEMGLCIIINNKNFHKSTGMTSRSGTDVDAANLRETFRNLKYEVRNKNDLTREEIVELMRDVSKEDHSKRSSFVCVLLSHGEEGIIFGTNGPVDLKKITNFFRGDRCRSLTGKPKLFIIQACRGTELDCGIETDSGVDDDMACHKIPVEADFLYAYSTAPGYYSWRNSKDGSWFIQSLCAMLKQYADKLEFMHILTRVNRKVATEFESFSFDATFHAKKQIPCIVSMLTKELYFYH"}, "B2": {"name": "Purified Neutrophil-derived Cathepsin G (protein)", "chain": "IIGGRESRPHSRPYMAYLQIQSPAGQSRCGGFLVREDFVLTAAHCWGSNINVTLGAHNIQRRENTQQHITARRAIRHPQYNQRTIQNDIMLLQLSRRVRRNRNVNPVALPRAQEGLRPGTLCTVAGWGRVSMRRGTDTLREVQLRVQRDRQCLRIFGSYDPRRQICVGDRRERKAAFKGDSGGPLLCNNVAHGIVSYGKSSGVPPEVFTRVSSFLPWIRTTMRS"}, "B3": {"name": "purified cathepsin K (protein)", "chain": "APDSVDYRKKGYVTPVKNQGQCGSCWAFSSVGALEGQLKKKTGKLLNLSPQNLVDCVSENDGCGGGYMTNAFQYVQKNRGIDSEDAYPYVGQEESCMYNPTGKAAKCRGYREIPEGNEKALKRAVARVGPVSVAIDASLTSFQFYSKGVYYDESCNSDNLNHAVLAVGYGIQKGNKHWIIKNSWGENWGNKGYILMARNKNNACGIANLASFPKM"}, "B4": {"name": "Purified Neutrophil-derived Elastase (protein)", "chain": "IVGGRRARPHAWPFMVSLQLRGGHFCGATLIAPNFVMSAAHCVANVNVRAVRVVLGAHNLSRREPTRQVFAVQRIFENGYDPVNLLNDIVILQLNGSATINANVQVAQLPAQGRRLGNGVQCLAMGWGLLGRNRGIASVLQELNVTVVTSLCRRSNVCTLVRGRQAGVCFGDSGSPLVCNGLIHGIASFVRGGCASGLYPDAFAPVAQFVNWIDSIIQ"}}, "key": {"[1]": {"biological_target": "T1, DEVD-modified IL-36β, full length unprocessed", "T1 sequence (Q9NZH7 whole entry, species assumed, looked up)": "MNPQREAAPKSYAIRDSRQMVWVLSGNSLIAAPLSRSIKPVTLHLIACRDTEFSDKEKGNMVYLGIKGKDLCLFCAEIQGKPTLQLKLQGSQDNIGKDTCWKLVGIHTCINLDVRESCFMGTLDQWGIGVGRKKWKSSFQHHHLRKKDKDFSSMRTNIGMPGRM"}, "[2]": {"biological_target": "T2, DEVD-modified IL-36γ, full length", "T2 sequence (Q9NZH8 whole entry, species assumed, looked up)": "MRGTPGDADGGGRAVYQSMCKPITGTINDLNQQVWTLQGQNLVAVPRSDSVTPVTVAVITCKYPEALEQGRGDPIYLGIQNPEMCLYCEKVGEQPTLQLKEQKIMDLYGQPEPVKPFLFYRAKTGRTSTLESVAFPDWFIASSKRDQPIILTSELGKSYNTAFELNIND"}, "biotin-FLF-CMK": {"biological_target": "T3, biotin-FLF-CMK", "T3 chain": "FLF"}, "[3]": {"biological_target": "T4, Full-length poly-histidine-tagged human IL-36β", "T4 chain": "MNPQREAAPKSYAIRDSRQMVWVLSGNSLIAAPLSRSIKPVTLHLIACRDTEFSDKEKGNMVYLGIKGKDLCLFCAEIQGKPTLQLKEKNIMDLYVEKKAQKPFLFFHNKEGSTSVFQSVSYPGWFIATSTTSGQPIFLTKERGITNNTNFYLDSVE"}, "endogenous IL-36γ": {"biological_target": "T5, endogenous IL-36γ", "T5 chain": "T2 sequence (Q9NZH8 whole entry, species assumed, looked up)"}}}
{"protein": "B1", "values": [{"measurement": "proteolytic processing, immunoblot", "setting": "[1]", "value": "DEVD-modified IL-36β (IL-36b^DEVD) and DEVD-modified IL-36γ (IL-36g^DEVD) was readily processed by caspase-3"}, {"measurement": "proteolytic processing, immunoblot", "setting": "[2]", "value": "DEVD-modified IL-36β (IL-36b^DEVD) and DEVD-modified IL-36γ (IL-36g^DEVD) was readily processed by caspase-3"}]}
{"protein": "B2", "values": [{"measurement": "depletion of cathepsin G activity from degranulates with streptavidin agarose (FLF-sBzl hydrolysis; IL-36β bioassay)", "setting": "biotin-FLF-CMK", "value": "selective depletion of cathepsin G activity from PMA-treated neutrophil degranulates using biotin-FLF-CMK largely eliminated activation of IL-36b but not of IL-36g"}]}
{"protein": "B3", "values": [{"measurement": "cleavage and activation of IL-36β", "setting": "[3]", "value": "cathepsin K, a protease predominantly expressed in osteoclasts, can cleave and activate IL-36β (beta) at the same residue as Cathepsin G (NPQR5 EAAP)"}]}
{"protein": "B4", "values": [{"measurement": "proteolysis of endogenous IL-36γ from keratinocyte extracts and supernatants, immunoblot", "setting": "endogenous IL-36γ", "value": "IL-36γ incubated with elastase resulted in robust IL-36γ proteolysis both intracellularly as well as extracellularly"}, {"measurement": "proteolysis of endogenous IL-36γ in psoriatic skin homogenates, immunoblot", "setting": "endogenous IL-36γ", "value": "incubating these psoriatic homogenates with neutrophil elastase resulted in IL-36γ proteolysis"}]}
